What was measured:
[1] = target: T1, cynomolgus FLT3 expressed on CHO-S cells (cynomolgus, UniProt A0A2K5VQ48 27-993); experiment: flow cytometry (iQue Screener PLUS) on CHO-S cells transiently expressing cynomolgus FLT3; AF647 anti-human IgG (H+L) secondary; GeoMean RL1-H; 12-point titration
T1 construct: whole, on cells
Description: (§1) The anti-FLT3 antibodies were incubated with the hamster CHO-S cell line transiently expressing human, cynomolgus or mouse FLT3 for 30 minutes at 4° C. The cells were washed twice and subsequently incubated for an additional 20 minutes with AF647-conjugated secondary anti-human IgG (H+L) antibody. After the washing step, antibody binding was detected using the high-throughput flow cytometer iQue Screener PLUS (Sartorius) measuring the GeoMean of AF647 signal in each well. Every concentration was assayed in triplicate and a 12-point titration curve was generated for each antibody.

[2] = target: T2, human FLT3 expressed on cells (human, UniProt P36888 27-993); experiment: flow cytometry (iQue Screener PLUS) on CHO-S cells transiently expressing human FLT3; AF647 anti-human IgG (H+L) secondary; GeoMean RL1-H; 12-point titration
T2 construct: endogenous on EOL-1 cells and primary CD34+ stem cells in the functional rows; also called CD135
Description: as §1

[3] = target: T3, recombinant human FLT3 ECD his-tagged fusion receptor (Sino Biological) (human, UniProt P36888 27-543); experiment: bio-layer interferometry (Octet QK384); FLT3-his immobilized on anti-penta-HIS (HIS1K) biosensor; 500 nM antibody, 600 s association
T3 construct: Bought protein; also called FLT3-his; His-tagged FLT3; not shown: His tag

[4] = target: T4, mouse FLT3 expressed on CHO-S cells (mouse, UniProt Q00342 28-1000); experiment: flow cytometry (iQue Screener PLUS) on CHO-S cells transiently expressing mouse FLT3; AF647 anti-human IgG (H+L) secondary; GeoMean RL1-H
T4 construct: whole, on cells
T4 sequence (Q00342 28-1000): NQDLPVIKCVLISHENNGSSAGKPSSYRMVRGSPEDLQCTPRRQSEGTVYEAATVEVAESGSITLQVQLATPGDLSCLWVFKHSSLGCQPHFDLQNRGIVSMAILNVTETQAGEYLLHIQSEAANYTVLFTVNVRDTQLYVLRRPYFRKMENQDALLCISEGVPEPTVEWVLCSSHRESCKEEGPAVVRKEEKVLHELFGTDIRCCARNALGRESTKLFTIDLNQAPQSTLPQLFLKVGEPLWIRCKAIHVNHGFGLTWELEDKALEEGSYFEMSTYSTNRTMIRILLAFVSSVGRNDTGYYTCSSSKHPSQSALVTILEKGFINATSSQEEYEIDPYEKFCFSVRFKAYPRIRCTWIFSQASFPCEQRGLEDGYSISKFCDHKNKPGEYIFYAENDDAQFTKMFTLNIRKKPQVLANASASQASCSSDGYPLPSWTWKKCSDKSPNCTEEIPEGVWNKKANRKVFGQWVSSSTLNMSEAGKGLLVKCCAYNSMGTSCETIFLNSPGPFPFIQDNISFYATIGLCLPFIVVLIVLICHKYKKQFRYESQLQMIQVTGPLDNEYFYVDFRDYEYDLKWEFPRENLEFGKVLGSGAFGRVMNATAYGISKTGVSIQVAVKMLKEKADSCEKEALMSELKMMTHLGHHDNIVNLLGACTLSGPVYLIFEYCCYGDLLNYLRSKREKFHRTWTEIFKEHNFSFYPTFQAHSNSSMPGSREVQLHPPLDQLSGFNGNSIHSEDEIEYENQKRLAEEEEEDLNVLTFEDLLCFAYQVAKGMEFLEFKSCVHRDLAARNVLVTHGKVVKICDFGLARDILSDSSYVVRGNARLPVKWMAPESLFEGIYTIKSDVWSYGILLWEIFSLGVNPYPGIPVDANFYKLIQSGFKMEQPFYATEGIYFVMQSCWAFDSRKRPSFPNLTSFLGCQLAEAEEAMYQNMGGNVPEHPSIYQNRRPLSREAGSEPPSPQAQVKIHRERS
Description: as §1

[5] = target: T4, mouse FLT3 expressed on CHO-S cells; experiment: flow cytometry (iQue Screener PLUS) on CHO-S cells transiently expressing mouse FLT3; AF647 anti-human IgG (H+L) secondary; GeoMean RL1-H; 12-point titration
Description: as §1

| EC50 (read off the curve) [1] | binding result [2] | binding result [3] | binding result [4] | EC50 (read off the curve) [5] | EC50 (read off the curve) [2] | Binder |
| --- | --- | --- | --- | --- | --- | --- |
| ~0.02 µg/mL | binds | binds | no binding |  |  | anti-FLT3 antibody 17526 (antibody, human IgG1, kappa, L234A L235A, V domains shown, Human IgG1-LALA / kappa) VH: QVTLKESGPVLVKPTETLTLTCTISGFSLGNARMGVSWIRQPPGKALEWLAHIFSNDEKSYSTSLKSRLTISKDTSKSQVVLTMTNMDPVDTATYYCARIVGYVDWLLPFDYWGQGTLVTVSS VL: not shown |
| ~0.02 µg/mL | binds | binds | no binding |  |  | anti-FLT3 antibody 17667 (antibody, human IgG1, kappa, L234A L235A, V domains shown, Human IgG1-LALA / kappa) VH: QVTLKESGPVLVKPTETLTLTCTVSGFSLSNARMGVSWIRQPPGKALEWLAHIFSNDERSYSPSLKSRLTISKGTSKSQVVLTMTNMDPVDTATYYCARIVGYVDWLLPFDYWGQGTLVTVSS VL: not shown |
| ~0.04 µg/mL | binds | binds | no binding |  |  | anti-FLT3 antibody 17679 (antibody, human IgG1, kappa, L234A L235A, V domains shown, Human IgG1-LALA / kappa) VH: QVQLQESGPGLVKPSQTLSLTCTVSGGSISSGGYYWSWIRQHPGKGLEWIGYIYYSGRTNYNPSLKSRVTISEDTSKNQFSLKVSSVTAADTAVYYCARDQDGSGWYFDYWGQGALVTVSS VL: EIVLTQSPATLSLSPGERATLSCRASQSVSSYLAWYQQKPGQAPRLLIYDASNRATGIPARFSGSGSGTDFTLTIRSLEPEDFAVYYCQQRSNWWTFGQGTKVEIKR |
| ~0.03 µg/mL | binds | binds | no binding |  |  | anti-FLT3 antibody 17566 (antibody, human IgG1, kappa, L234A L235A, V domains shown, Human IgG1-LALA (L234A/L235A) / kappa, germline-corrected variable domains) VH: QVTLKESGPVLVKPTETLTLTCTVSGFSFNNARMGVNWIRQPPGKALEWLAHIFSNDEKSYSTSLKSRLTISKDISKSQVVLTMTNMDPVDTATYYCARIVGYGSGWRLLGDYWGQGTLVTVSS VL: AIQMTQSPSSLSASVGDRVTITCRASQGITNDLGWYQQKPGKAPKLLIYAASSLQSGVPSRFSGSGSGTDFTLTISSLQPEDFATYYCLQDYNYPWTFGQGTKVEIKR |
| ~0.01 µg/mL | binds | binds |  | ~0.01 µg/mL |  | anti-FLT3 antibody 17497 (antibody, human IgG1, kappa, L234A L235A, V domains shown, Human IgG1-LALA / kappa) VH: QVQLQESGPGLVKPSGTLSLTCAVSGGSISSTNWWSWVRQPPGKGLEWIGEISHRGSTNYNPSLKSRVTISVDKSKNQFSLKLSSVTAADTAVYYCARDPEMTLYYYYGMDVWGQGTTVTVSS VL: DIQMTQSPSSLSASVGDRVTITCRASRGIRNDLGWYQQKPGKAPKRLIYAASSLQSGVPSRFSGSGSGTEFTLTISSLQPEDFATYYCLQHNSYPLTFGGGTKVEIKR |
| ~0.04 µg/mL |  |  | no binding |  | ~0.03 µg/mL | anti-FLT3 antibody 17543 (antibody, human IgG1, kappa, L234A L235A, V domains shown, Human IgG1-LALA / kappa) VH: QVTLKESGPVLVKPTETLTLTCTVSGFSLINARMGVTWIRQPPGKALEWLAHIFSNDEKSYSTSLKSRLTISKDTSKSQVVLTMTNMDPVDTATYYCARIPGYSRGWDYYYYGMDVWGQGTMVTVSS VL: DIQMTQSPSSLSASVGDRVTITCRASQGIRNDLGWYQQKPGKAPKRLIYAASTLQSGVPSRFSGSGSGTEFTLTISSLQPEDFATYYCLQHNSYPWTFGQGTKVEIKR |
